Biological target: CCR6-NES-eLOV-TEVcs-FLAG-Gal4-V5 receiver construct, expressed in HEK293T cells

TRACC UAS-mCherry reporter by confocal imaging, HEK293T in trans: percent of receiver cells in contact with sender cells with reporter expression above background: 80.2%
Substance: CCL20 sender construct (CCL20-18 aa linker-3xHA-pre-mGRASP), expressed in HEK293T cells (ligand)
